# pKd: −log10 of the molar value.
# Tests used:
# [1] = test system: T1, MbdR-His6 (Azoarcus sp. CIB), ORF:e0c75ca7; experiment: EMSA; details: EMSA: 20 mM Tris-HCl pH 7.5, 10% glycerol, 50 mM KCl, 0.05 nM probe, 250 ug/ml BSA, 50 ug/ml salmon sperm DNA, 20 min 30 C; footprinting: same buffer, 2 nM …
# T1 sequence: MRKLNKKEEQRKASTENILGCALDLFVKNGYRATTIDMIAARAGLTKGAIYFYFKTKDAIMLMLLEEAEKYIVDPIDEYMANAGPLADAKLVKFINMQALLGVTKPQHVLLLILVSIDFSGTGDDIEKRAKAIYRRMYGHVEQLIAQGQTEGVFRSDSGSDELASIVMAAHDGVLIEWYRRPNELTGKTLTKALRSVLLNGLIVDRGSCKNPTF
# [2] = test system: T1, MbdR-His6 (Azoarcus sp. CIB), ORF:e0c75ca7; experiment: DNase I footprinting; details: EMSA: 20 mM Tris-HCl pH 7.5, 10% glycerol, 50 mM KCl, 0.05 nM probe, 250 ug/ml BSA, 50 ug/ml salmon sperm DNA, 20 min 30 C; footprinting: same buffer, 2 nM …
# [3] = test system: MbdR-His6 (Azoarcus sp. CIB); experiment: EMSA; details: relative Kd; EMSA: 20 mM Tris-HCl pH 7.5, 10% glycerol, 50 mM KCl, 0.05 nM probe, 250 ug/ml BSA, 50 ug/ml salmon sperm DNA, 20 min 30 C; footprinting: same buffer, 2 nM …
# [4] = target: MbdR-His6 protein (Azoarcus sp. CIB); experiment: AUC; sedimentation velocity (48,000 rpm, 20 °C) and sedimentation equilibrium (5000 to 15,000 rpm) of MbdR-His6 at 11 to 46 μM in 50 mM NaH2PO4, 300 mM KCl, 20 mM imidazole, pH 8; data not shown
Substance,binding [2],pKd [3],also measured
AATTCCCTGCGCGCGGCACTATGTCGGGGGAAATTCAGTCATTGCGGAAAACGGCGTTTCCGCGAGCTCGCCAACAAAAGGTCTGACAGCCCCGGTCCCCACATGCGGCTACCATATACCGGCTGGCTGGTATGTGTCAACGACTGATACGGAAGACCTCGAAATCGGAGGGAGGAAAATGGGAAAAGGACCTTTGAGAGCATGGACGGCGCATGGCGAGGAGATGGTATTACGGTAAGTGCTCCACGAGT (double strand) [PB1 probe (251 bp)],binds,,pKd [1]: 8.43
PO probe (271 bp),,8.77,
ACTGAGGCCCCGCCCAAGTTTTCATTATCTCTAGTACCGGCAAAGAAGGGCCAAACAGATCTATTGCATACTATCCGGTTAGTACGTCTTTTGACCAATTGATCTACACGAGGGGAAACCATGTTCGAGAATTTCAACCATAGTGCTCTGCGTCTTGGAGCGCCAGGCGCTTTAGCGCAGCGTTTGCTGCCGAAGCATCAGGGTCACTATGTTGATGCGCATTGAGGGAATT (double strand) [PA probe (225 bp)],binds,,binding [1]: binds
PB1 probe (251 bp),,8.43,
MbdR-His6 protein (natural protein),,,stoichiometry N [4]: 2

# From article PMC4424350, “Unraveling the Specific Regulation of the Central Pathway for Anaerobic Degradation of 3-Methylbenzoate” (The Journal of Biological Chemistry, 2015)
